{
  "source": "paper PMC5010387",
  "biological_target": "ClC-ec1 C85A/H234C labelled with Cy5 (WT-Cy5) (Escherichia coli) (UniProt P37019)",
  "experiment": "single-molecule photobleaching of subunits captured into liposomes (TIRF); high-density proteoliposomes (χ = 7.5 × 10^-6 subunit/lipid) diluted 10X to 1000X by freeze/thaw fusion with empty 2:1 POPE/POPG vesicles, incubated at room temperature, time course after freeze/thaw",
  "data": [
    {"substance": "ClC-ec1 C85A/H234C labelled with Cy5 (WT-Cy5) (from UniProt P37019 1-473) (natural protein)", "values": [
      {"measurement": "mid-point of the convergence of the 1000X diluted sample to the reconstituted probabilities", "value": 13, "unit": "days"}
    ]}
  ]
}
